Some targets named below: Pax7 HD (mouse (Mus musculus), UniProt P47239 215-273); Pax7 PD-HD homodimer (mouse (Mus musculus), UniProt P47239 35-273); Pax7 PD (mouse (Mus musculus), UniProt P47239 35-158); Pax7 PD-L (mouse (Mus musculus), UniProt P47239 35-215).
Experiment in all cases: EMSA
Data set [1] addresses T1, Pax7 PD-HD (mouse (Mus musculus), UniProt P47239 35-273).
Data set [2] has as its target T1, Pax7 PD-HD. This is another data set of the same source.
In data set [3] the target is T1, Pax7 PD-HD. This is another data set of the same source.
For data set [4], the target named is T1, Pax7 PD-HD. The source holds these as a separate data set.

Experimental findings from PMC8287922 are described below.

Read-outs that look alike come from different tables or passages of the source.

Chain of Pax7 HD (P47239 215-273): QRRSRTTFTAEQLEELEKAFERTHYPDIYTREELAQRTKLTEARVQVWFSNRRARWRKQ
T1 sequence (P47239 35-273): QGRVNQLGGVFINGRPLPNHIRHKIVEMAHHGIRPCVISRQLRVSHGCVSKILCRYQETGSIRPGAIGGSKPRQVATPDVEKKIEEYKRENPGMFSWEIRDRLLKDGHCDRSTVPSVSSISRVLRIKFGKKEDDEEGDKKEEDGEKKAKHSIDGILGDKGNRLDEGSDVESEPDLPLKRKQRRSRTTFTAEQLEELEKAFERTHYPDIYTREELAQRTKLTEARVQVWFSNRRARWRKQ
Chain of Pax7 PD (P47239 35-158): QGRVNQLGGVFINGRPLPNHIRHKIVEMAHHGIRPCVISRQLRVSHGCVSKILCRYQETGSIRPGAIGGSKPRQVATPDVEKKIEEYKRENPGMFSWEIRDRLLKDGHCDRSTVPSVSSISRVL
Chain of Pax7 PD-L (P47239 35-215): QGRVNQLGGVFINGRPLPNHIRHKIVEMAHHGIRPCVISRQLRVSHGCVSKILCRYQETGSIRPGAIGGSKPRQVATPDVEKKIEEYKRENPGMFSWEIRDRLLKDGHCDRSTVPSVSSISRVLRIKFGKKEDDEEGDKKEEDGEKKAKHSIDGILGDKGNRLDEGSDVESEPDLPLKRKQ
Chain of Pax7 PD-HD homodimer (P47239 35-273): as the sequence (P47239 35-273) above

B1: HD (mutated PD) (dsDNA)
DNA 1: TCGACGCAGATCGTCCGCTAATTCCAACGACCTCGA
DNA 2: TCGAGGTCGTTGGAATTAGCGGACGATCTGCGTCGA
As for B1, the binding result with Pax7 HD is listed as “no binding”.

B2: H.I2 (dsDNA)
DNA 1: TCGACTCGTCCGCTAATTGATTATCCAACGACCTCGA
DNA 2: TCGAGGTCGTTGGATAATCAATTAGCGGACGAGTCGA
Regarding B2, the binding result in the data set with Pax7 HD, with Pax7 PD-HD [1] and with Pax7 PD-HD homodimer was “binds” throughout.

B3: H.I-2 (dsDNA)
DNA 1: TCGACCAGATCGTCCGCTAATTACCAACGACCTCGA
DNA 2: TCGAGGTCGTTGGTAATTAGCGGACGATCTGGTCGA
As to B3, the binding result is listed as “no binding” with Pax7 HD and “binds” with Pax7 PD-HD [2].

B4: PD (mutated HD) (dsDNA)
DNA 1: TCGACGCAGATCCGTGACGCCAGTTCCGACCTCGA
DNA 2: TCGAGGTCGGAACTGGCGTCACGGATCTGCGTCGA
Consider B4, for which the binding result with Pax7 PD-HD [3], with Pax7 PD and with Pax7 PD-L was “binds” throughout.

B5: Composite HP.E0 (dsDNA)
DNA 1: TCGACGCAGATCCGTGACTAATGTTCCGACCTCGA
DNA 2: TCGAGGTCGGAACATTAGTCACGGATCTGCGTCGA
Consider B5, for which the binding result with Pax7 PD and with Pax7 PD-HD [4] was “binds” throughout.
